From paper PMC11587196 (Cell reports, 2024) come the findings set out here.

By Kd is commonly meant the equilibrium constant for the complex coming apart. High values mean weaker binding, low ones tighter binding. For orientation: koff means the first-order rate constant of dissociation.

Holding throughout (assay): SPR
In general terms: SPR reads the build-up and loss of mass on a sensor chip optically.

Assay [1] addresses IL-1RAcP domain 3 (Homo sapiens, UniProt Q9NPH3).
In assay [2] the target is IL-1RAcP domain 1/2 (Homo sapiens, UniProt Q9NPH3).
In assay [3] the target is IL-1 receptor accessory protein (IL-1RAcP) ectodomain (Homo sapiens (Human)., UniProt Q9NPH3, glycosylated (seven putative glycosylation sites)).
Sequence of IL-1 receptor accessory protein (IL-1RAcP) ectodomain (Q9NPH3 21-367): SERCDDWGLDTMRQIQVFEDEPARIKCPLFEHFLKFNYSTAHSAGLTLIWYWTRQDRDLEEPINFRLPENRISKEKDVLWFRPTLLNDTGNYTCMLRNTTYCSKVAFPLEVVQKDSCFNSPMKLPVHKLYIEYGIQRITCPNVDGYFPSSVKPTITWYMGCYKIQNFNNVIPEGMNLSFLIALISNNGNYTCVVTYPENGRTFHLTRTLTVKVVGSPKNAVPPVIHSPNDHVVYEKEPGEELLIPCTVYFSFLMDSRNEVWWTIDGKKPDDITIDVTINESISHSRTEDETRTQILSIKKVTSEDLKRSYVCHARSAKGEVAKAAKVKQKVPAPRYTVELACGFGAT
Assay [4] has as its target Fc-fused IL-1RAcP V224A (Homo sapiens, UniProt Q9NPH3, V224A).
Assay [5] addresses Fc-fused IL-1RAcP Y249A (Homo sapiens, UniProt Q9NPH3, Y249A).
For assay [6], the target named is Fc-fused IL-1RAcP H226A (Homo sapiens, UniProt Q9NPH3, H226A).
Sequence of Fc-fused IL-1RAcP H226A (Q9NPH3 21-367 H246A): as the sequence (Q9NPH3 21-367) above, with H226A counted along it
Assay [7] has as its target Fc-fused IL-1RAcP R286A (Homo sapiens, UniProt Q9NPH3, R286A).

Sequence of Fc-fused IL-1RAcP Y249A (Q9NPH3 21-367 Y269A): as the sequence (Q9NPH3 21-367) above, with Y249A counted along it
Sequence of Fc-fused IL-1RAcP R286A (Q9NPH3 21-367 R306A): as the sequence (Q9NPH3 21-367) above, with R286A counted along it
Sequence of Fc-fused IL-1RAcP V224A (Q9NPH3 21-367 V244A): as the sequence (Q9NPH3 21-367) above, with V224A counted along it

B1: 3G5 monoclonal antibody (hIgG1 with Fc-silent LALA mutations) (antibody, V domains shown)
VH: EVQLVESGGVLVKPGGSLKLSCAASGFTFSDYAMSWVRQTPEKRLEWVATITDGGSYAYYTDDVKGRFTVSRDNARNNLFLQMSHLRSEDTGIYYCSRDRWPYYFDFWGRGTTLTVSS
VL: DIQMTQSPTSLSVSVGETVTITCRISENIYSNLAWYQQKEGKSPQLLVYAATKLADGVPSRFSGSGSGTQYSLKINSLQSEDFGNYYCQHFWTTPRTFGGGTKVEIK
In the case of B1, the figures for the Kd in assay [1] and in assay [3] were 0.118 nM and 0.141 nM, respectively. Also, in assay [2], the binding result is given as “no binding (tested: 1.25nM to 20nM)”. In assay [3], this molecule showed an off-rate constant (koff) of 0.000225 s⁻¹.

B2: 3G5 Fab (Fab, V domains shown)
VH: B1 VH
VL: B1 VL
For the molecule B2, the “ΔΔG (change in binding free energy against wild-type IL-1RacP-Fc)” value in assay [4] is 1.3 kcal/mol; in assay [5] it was 1.85 kcal/mol; in assay [6] it was 2.4 kcal/mol; in assay [7] it was 0.3 kcal/mol.
